Assay results taken from patent US20210198347A1 (Chugai, published 2021).

Experiments:
[1] = target: T1, Native proenzyme human C1s (Comptech A103) (human, UniProt P09871 16-688); assay: SPR (BIACORE T200, 37 degrees C, pH 7.4), antibody captured by protein A/G, C1s 50 nM
T1 construct: mature; Bought native protein; also called native human C1s Proenzyme; native human C1s proenzyme protein (CompTech)
T1 sequence (looked up): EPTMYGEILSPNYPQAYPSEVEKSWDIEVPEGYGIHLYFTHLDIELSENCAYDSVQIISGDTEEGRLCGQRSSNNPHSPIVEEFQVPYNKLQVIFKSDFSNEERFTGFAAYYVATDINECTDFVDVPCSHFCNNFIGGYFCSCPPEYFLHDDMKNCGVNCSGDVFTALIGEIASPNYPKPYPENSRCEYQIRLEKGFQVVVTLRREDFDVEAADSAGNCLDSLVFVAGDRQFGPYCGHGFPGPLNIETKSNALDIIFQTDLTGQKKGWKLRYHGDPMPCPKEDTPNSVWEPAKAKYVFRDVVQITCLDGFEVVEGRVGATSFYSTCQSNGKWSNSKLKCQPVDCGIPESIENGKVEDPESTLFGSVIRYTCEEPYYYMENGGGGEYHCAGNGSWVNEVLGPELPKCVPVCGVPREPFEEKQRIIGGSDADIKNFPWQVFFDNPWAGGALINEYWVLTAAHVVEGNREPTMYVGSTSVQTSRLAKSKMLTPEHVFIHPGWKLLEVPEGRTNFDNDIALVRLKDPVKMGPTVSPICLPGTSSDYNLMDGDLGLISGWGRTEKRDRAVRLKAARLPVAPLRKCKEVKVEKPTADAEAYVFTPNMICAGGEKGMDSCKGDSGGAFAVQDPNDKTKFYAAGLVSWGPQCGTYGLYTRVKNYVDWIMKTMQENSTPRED
Procedure: The binding specificities of the six C1s CUB1-EGF-CUB2 binders were determined at 37 degrees C. using BIACORE® T200 instrument (GE Healthcare). Recombinant Protein A/G (Pierce) was immobilized onto all flow cells of a CM4 sensor chip using an amine coupling kit (GE Healthcare). Antibodies and analytes were prepared in 7(+) buffer (20 mM ACES, 150 mM NaCl, 1.2 mM CaCl₂, 0.05% Tween 20, 0.005% NaN₃, pH 7.4). Each antibody was captured onto the sensor surface by protein A/G. Antibody capture levels were aimed at 100 resonance unit (RU). Native proenzyme human C1s (Comptech A103) (at 50 nM as a monomer) or recombinant human C1s CCP1-CCP2-SP-His (at 100 nM as a monomer) was injected, followed by dissociation. Sensor surface was regenerated each cycle with 10 mM Glycine-HCl pH 1.5. The six C1s CUB1-EGF-CUB2 binders bound to the native proenzyme human C1s, but not recombinant human C1s CCP1-CCP2-SP-His, which is a truncated protein lacking the CUB1-EGF-CUB2 domain.

[2] = target: T2, recombinant human C1s CCP1-CCP2-SP-His (human, UniProt P09871 292-688); assay: SPR (BIACORE T200, 37 degrees C, pH 7.4, 1.2 mM CaCl2), antibody captured by protein A/G
T2 construct: Truncated protein lacking the CUB1-EGF-CUB2 domain; also called human C1s CCP1-CCP2-SP M292-D688
T2 sequence: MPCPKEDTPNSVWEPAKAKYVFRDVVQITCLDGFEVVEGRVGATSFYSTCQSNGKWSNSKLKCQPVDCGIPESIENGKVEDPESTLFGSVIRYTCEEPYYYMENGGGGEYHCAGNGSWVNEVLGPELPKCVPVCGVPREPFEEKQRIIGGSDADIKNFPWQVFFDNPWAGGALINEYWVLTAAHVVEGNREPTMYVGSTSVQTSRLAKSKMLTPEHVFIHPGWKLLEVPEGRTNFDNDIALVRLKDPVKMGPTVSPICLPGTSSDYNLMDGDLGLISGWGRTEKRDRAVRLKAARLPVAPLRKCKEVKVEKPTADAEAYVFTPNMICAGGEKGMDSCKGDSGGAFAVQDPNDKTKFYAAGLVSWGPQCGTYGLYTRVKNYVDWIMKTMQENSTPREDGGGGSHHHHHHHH

B1: COS0583gg-SG1148 (antibody, human IgG1, kappa, V domains shown)
VH: QSLEESGGRLVTPGTPLTLTCTVSGIDLSSYAMIWVRQAPGKGLEWIGIIYVRGSTYYASWAKDRFTISKTSTTVDLKITSPTTEDTATYFCARAYGGDTFSDGFDPWGPGTLVTVSS
VL: DPVMTQTPSSTSAAVGGTVTINCQSSQNVYGNNRLAWYQQKPGQPPKLLIYLASTLASGVPSRFRGNGSGTQFTLTISGVQCDDAATYYCAGGYRDDTNSFGGGTKVEIKR
notes: Constant regions as for m1; also called COS583; COS583gg(-SG1148)
B1: binds [1]; no binding (tested: 100 nM) [2].
